Where a chain is given by its changes, count along the chain named.

Results on three molecules are retold here after patent US10196447B2, “Anti-vascular endothelial growth factor receptor 2 (VEGFR2) antibody and methods of use thereof for detecting VEGFR2 and for inhibiting tumor growth, tumor angiogenesis and/or inducing cancer cell cytotoxicity” (Academia Sinica, priority 2015, dated 2019).

Series [1] relates to VEGFR2 signaling pathway. Kind of series: Western blot of VEGF-A-induced phosphorylation in HUVECs. The conditions noted are these: 100 nM antibody. It counts as cell-based, human. The text has this:
Western blots were pertbrmed using standard protocols, as previously described. The primary antibodies were purchased from Cell Signaling Technology and used at a 1,000-fold dilution for protein detection; the antibodies used are as follows: anti-VEGFR2 (clone 55B11), anti-phospho-VEGFR2 (Tyr1175; clone 19A10), anti-FAK, anti-phospho-FAK (Tyr397; cloneD20B1), anti-p42/44 MAPK, anti-phospho-p42/44 MAPK (Thr202/Tyr204; cloneD13.14.4E), anti-Akt, and anti-phospho-Akt (Ser473).
In general terms: In western blotting, separated proteins are transferred to a membrane and probed.

Series [2] deals with murine VEGFR2 protein (Mus musculus, UniProt P35918, DEL223-227). The series is described as follows: Cross-reactivity with murine VEGFR2. It counts as binding.
Series [3] relates to PC-3 xenografts. The series is described as follows: PC-3 human prostate cancer xenograft model. It counts as in vivo, NOD/SCID mice. On the procedure:
Procedures involving animals and their care were conducted according to the guidelines of the Academia Sinica Institutional Animal Care and Utilization Committee in compliance with national and international laws and policies. Non-obese diabetic-severe combined immunodeficiency (NOD/SCID) mice were purchased from the National Laboratory Animal Center (Taiwan). The human prostate cancer xenograft tumor model was developed by subcutaneously injecting 2×10^6 PC-3 cells into the dorsal flank of a six-week old male mouse. Animals were monitored daily for general health, and body weights were measured twice weekly. Tumor size was measured with slide calipers and calculated as length×width^2×0.52. […] An antibody dose of 20 mg/kg was injected twice a week for four weeks. For combination therapy, docetaxel (ScinoPharm Taiwan) was also intravenously administered at a dose of 5 mg/kg once a week for three weeks. At the end of the experiment, tumor tissue and visceral organs were removed and fixed for histological analysis.
For tumor blood vessel studies, samples were fixed in OCT. Frozen blocks were cut into 50 μm sections, and frozen tumor tissue sections were fixed with 1% paraformaldehyde, permeabilized with 0.1% TRITON™-X 100, blocked with normal horse serum (Vector), and then incubated for 1 hour at room temperature (RT) with a 1:100 dilution of the primary antibody (rat anti-mouse CD31 (PECAM-1); BD Bioscience). Subsequently, the tissue sections were incubated with Alexa 549-conjugated goat anti-rat antibody (Invitrogen) at room temperature for 1 hour. Nuclei were stained with DAPI, and sections were then mounted with fluorescent mounting solution. Immunofluorescent images were acquired using a Zeiss Axiovert 200M microscope. Positive areas of CD31 endothelial cells were quantified by pixel area counting and normalized with DAPI staining using ImageJ software under low power magnification.
The frozen tumor tissue sections were fixed with 1% paratbrmaldehyde and permeabilized with 0.1% TRITON™-X 100, before being incubated with terminal deoxynucleotidyltransferase-mediated dUTP nick end labeling reaction mixture (Roche Diagnostics) at 37° C. for 1 hour. After washing three times with PBS, the slides were incubated with FITC-anti-DIG antibody (1:2000) and DAPI (1:500). Slides were mounted with mounting solution and visualized under a fluorescent microscope. Slides were independently examined by three individuals. Areas with TUNEL-positive cells were quantified by pixel area counting, and normalized to DAPI staining using ImageJ software.

The test system of series [4] is HL-60 leukemia xenografts. Kind of series: HL-60 leukemia xenograft model. The format is in vivo, NSG mice. On the procedure:
For systemic leukemia engraftment studies, NOD/SCID/IL2Rγ−/− (NSG) mice were obtained from the Animal Center of the Institute of Cellular and Organismic Biology, Academia Sinica. Six-week old females were intravenously injected with 5×10^6 HL-60 cells through the tail vein. Animals were monitored daily for general health, and body weights were measured twice weekly. […] Mice were observed daily for signs of toxicity, and the survival times were recorded. At the end-point of treatment, the visceral organs of each mouse were removed and fixed for further histological examination.
Tumors and indicated organs were dissected from mice and fixed in 4% paraformaldehyde overnight. Fixation and processing of specimens were performed in accordance with standard procedures. The specimens were embedded in paraffin and cut into […] sections. Rehydrated paraffin-embedded tissue sections were stained with Mayer's hematoxylin solution (Wako) for 5 minutes and washed with water for 1-2 minutes. The slides were then stained with eosin solution (Wako) for 10 minutes. Tissues were visualized with Tissue Gnostics microscopes.

For series [5], the target named is T1, VEGFR2-Fc (Homo sapiens, UniProt P35968).
T1 construct: purchased R&D Systems
The series is described as follows: Screening of anti-VEGFR2 phage clones by ELISA. The conditions noted are these: 1×10^9 cfu phage titer. The format is binding. Here is the method: (§1) The selected phages were further examined by ELISA screening. The 96-well plates were coated with 1 μg/ml of VEGFR2-Fc, Met-Fc (R&D), or BSA (Sigma) protein in 0.1 M sodium bicarbonate overnight at 4° C. After blocking with 1% BSA in PBS (w/v) for 2 hr at room temperature, 70-randomly selected phage clones were added to the plates at a 1:2 dilution in 1% BSA, and incubated for 1 hr at room temperature. Following washes with PBST, the plates were incubated with a 1:2000 dilution of horseradish peroxidase (HRP)-conjugated mouse anti-M13 phage antibody (GE) for 1 hr. After washing with PBST, the colorimetric reaction was developed with the peroxidase substrate ortho-phenylenediamine (OPD; Sigma) plus H2O2 for 15 min, and then terminated by the addition of 3 N HCl. The absorbance at 490 nm was determined using a microplate reader (SpectraMax, Molecular Devices). Plasmid DNA of positive clones were isolated and sequenced using the pCANTAB5 sequencing primer set.
Background: In an ELISA, binding on a coated surface is turned into a signal by an enzyme label.

In series [6] the test system is Met-Fc. Kind of series: Phage clone ELISA on control protein. It counts as binding. Here is the method: as §1
Series [7] deals with VEGFR2 on the cell surface of HUVEC. The series is described as follows: Flow cytometry binding to HUVECs. It counts as cell-based, human. The conditions noted are these: FACS; 1×10^10 cfu. Here is the method:
About 1×10^4 HUVEC were incubated with the selected anti-VEGFR2 phage clones at 4° C. for 1 hour in FACS buffer (PBS containing 1% fetal bovine serum). After the cells were washed with FACS buffer, they were first incubated with mouse anti-M13 phage Ab for 1 hr at 4° C., and then with R-phycoerythrin-conjugated goat anti-mouse IgG (Jackson Immuno Research) for 30 min at 4° C. Flow cytometry was performed with a FACSCantoII (BD), and emission fluorescence intensity was measured with FACS Diva software (BD) to quantitatively compare binding affinities.
In general terms: In flow cytometry, cells or beads pass a laser one at a time.

Series [8] addresses T1, VEGFR2-Fc. Kind of series: ELISA binding of R2S12 and R2S12-AF scFv to VEGFR2-Fc (affinity maturation). On the procedure: (A) Affinity maturation for R2S12. […] Subsequently, the beads were washed four times with PBS containing 1% TWEEN™ 20. After four rounds of biopanning, the recovery rate of the phages was increased by 929-fold over that of the first round. (B) Comparison of the binding activity of the indicated concentrations of R2S12 and R2S12-AF scFv to VEGFR2-Fc protein, as assayed by ELISA. Error bar, SE.
Affinity maturation was performed as previously described. […] This synthetic library was used to perform biopanning for VEGFR2-Fc-immobilized DYNABEADS®. After four to five rounds of stringent in vitro biopanning, positive clones were screened and identified by ELISA.

The mark [9] stands for this setting: 20 mg/kg i.v. twice weekly from day 3.

T1 sequence (P35968 with tags, fused parts or gaps limits assumed): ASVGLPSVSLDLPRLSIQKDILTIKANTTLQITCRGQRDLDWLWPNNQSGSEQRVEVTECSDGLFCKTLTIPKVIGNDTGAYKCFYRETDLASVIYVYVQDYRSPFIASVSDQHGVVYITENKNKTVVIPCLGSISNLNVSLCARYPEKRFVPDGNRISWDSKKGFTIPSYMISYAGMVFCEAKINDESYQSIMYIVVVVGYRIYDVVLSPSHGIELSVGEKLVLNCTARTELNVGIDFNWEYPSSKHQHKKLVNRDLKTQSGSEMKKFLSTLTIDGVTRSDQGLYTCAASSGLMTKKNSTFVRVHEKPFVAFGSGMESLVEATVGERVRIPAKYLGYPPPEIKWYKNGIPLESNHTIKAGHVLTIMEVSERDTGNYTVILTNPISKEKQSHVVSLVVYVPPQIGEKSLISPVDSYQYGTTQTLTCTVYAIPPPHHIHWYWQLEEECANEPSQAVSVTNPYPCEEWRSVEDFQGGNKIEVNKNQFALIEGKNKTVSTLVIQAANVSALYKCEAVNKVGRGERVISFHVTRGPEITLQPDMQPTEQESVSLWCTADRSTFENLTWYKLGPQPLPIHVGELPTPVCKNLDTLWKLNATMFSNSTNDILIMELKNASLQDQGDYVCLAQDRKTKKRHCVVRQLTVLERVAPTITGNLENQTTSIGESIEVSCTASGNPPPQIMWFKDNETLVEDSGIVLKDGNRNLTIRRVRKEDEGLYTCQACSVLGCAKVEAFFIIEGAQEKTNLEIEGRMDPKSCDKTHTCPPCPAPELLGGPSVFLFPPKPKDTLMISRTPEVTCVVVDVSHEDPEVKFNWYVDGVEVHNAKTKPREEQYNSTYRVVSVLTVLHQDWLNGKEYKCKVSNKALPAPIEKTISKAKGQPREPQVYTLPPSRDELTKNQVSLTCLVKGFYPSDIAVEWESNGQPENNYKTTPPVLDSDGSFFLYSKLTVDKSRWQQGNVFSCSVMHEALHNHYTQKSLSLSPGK
Chain of murine VEGFR2 protein (P35918 with tags, fused parts or gaps DEL223-227): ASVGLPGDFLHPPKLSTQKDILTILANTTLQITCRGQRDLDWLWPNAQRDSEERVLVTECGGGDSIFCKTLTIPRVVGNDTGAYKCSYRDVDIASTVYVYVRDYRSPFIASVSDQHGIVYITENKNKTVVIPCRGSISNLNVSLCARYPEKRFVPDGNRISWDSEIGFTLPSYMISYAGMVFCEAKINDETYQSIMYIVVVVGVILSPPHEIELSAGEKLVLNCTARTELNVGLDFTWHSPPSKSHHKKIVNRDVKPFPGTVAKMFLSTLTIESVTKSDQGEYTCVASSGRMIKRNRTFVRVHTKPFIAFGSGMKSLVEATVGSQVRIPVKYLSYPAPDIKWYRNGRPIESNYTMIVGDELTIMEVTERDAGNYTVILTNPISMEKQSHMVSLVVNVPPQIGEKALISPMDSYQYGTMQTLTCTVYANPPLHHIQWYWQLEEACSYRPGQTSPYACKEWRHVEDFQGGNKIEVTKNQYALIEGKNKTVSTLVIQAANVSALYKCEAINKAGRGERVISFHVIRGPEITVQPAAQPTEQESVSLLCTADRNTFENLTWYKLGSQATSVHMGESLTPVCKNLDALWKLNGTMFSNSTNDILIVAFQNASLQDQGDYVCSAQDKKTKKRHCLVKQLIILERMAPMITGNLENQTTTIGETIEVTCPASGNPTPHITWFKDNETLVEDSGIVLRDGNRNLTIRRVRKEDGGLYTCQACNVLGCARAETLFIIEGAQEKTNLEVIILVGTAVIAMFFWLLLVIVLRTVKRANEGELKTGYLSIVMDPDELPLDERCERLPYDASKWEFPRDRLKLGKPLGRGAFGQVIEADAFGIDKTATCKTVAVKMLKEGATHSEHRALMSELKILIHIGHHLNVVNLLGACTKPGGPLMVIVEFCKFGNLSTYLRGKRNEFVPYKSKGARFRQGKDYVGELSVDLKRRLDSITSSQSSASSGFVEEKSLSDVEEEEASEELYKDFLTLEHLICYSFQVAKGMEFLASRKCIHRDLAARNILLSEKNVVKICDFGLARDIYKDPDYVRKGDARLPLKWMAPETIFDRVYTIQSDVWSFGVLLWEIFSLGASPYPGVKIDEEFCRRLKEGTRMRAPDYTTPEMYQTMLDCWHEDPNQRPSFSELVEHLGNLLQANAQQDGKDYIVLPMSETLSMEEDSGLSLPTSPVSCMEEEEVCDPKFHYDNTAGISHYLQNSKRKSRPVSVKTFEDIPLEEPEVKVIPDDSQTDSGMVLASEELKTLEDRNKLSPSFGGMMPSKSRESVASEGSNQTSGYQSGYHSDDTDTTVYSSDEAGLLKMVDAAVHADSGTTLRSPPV

As for “IMC-1121B: FDA-approved anti-VEGFR2 human antibody (Ramucirumab), expressed by the applicant as human IgG1 [reference compound]”, the FAK phosphorylation entry in series [1] is reported as “only marginally reduced”. For the same molecule, the “cross-reaction / binding to murine VEGFR2” value in series [2] is given as “not”. The tumor growth reduction in series [3] (by day 38, antibody 20 mg/kg i.v. twice a week, docetaxel 5 mg/kg i.v. once a week) stood at 45%. Also, the “changes in body weight during the treatment period” value in series [3] (compared to the NHIgG group or docetaxel alone) is on record as “no significant changes”. Besides, the “docetaxel-induced toxicity (body weight as surrogate)” value in series [3] (in combination with docetaxel) is listed as “do not enhance”. In series [4] (setting [9]), the median survival is reported as 43 days and the survival time worked out at 56 days. In addition, the “lymph nodes with leukemia infiltration” value in series [4] (n=9 per group) is recorded as “five of nine”.

B1: R2PC12: phage-displayed human scFv clone binding VEGFR2; VH CDR1-3 SEQ ID NO: 6-8, VL CDR1/CDR3 SEQ ID NO: 9, 10 (antibody, V domains shown)
VH: QVNLRESGGGLVKPGGSLRLSCAASGFTFGSYTMNWVRQAPGKGLEWVASITSGSSYIFYTDSVKGRFTISRDNSRSSLFLQMNSLRAEDTAIYYCARGSASAFDIWGQGTMVTVSS
VL: DIQMTQSPSSLSASVGDRVTITCKASDDIINYLNWYQQKPGEAPKLLIYDASILETGVPSRFSGSGSGTDFTFTISSLQPEDIATYYCQQYDILPLTFGGGTKLEIK
In the case of B1, the “binding of phage clones to VEGFR2-Fc” value in series [5] is given as “bind highly”. In series [6], the “binding of phage clones to c-Met-Fc control protein” value is “not”. In series [7], the “binding of phage clones to VEGFR2 on HUVEC cell surface” value is listed as “greatest reactivity”.

B2: R2S12AF: affinity-matured scFv clone of R2S12; VH SEQ ID NO: 76, VL SEQ ID NO: 78, VL-CDR3 QQLDDIPIT (antibody, V domains shown)
VH: B1 VH
VL: B1 VL with Y91L, I93D, L94I, L96I
modifications: scFv linker; VH region of R2S12 or R2S12-AF; VL region of R2S12AF
In the case of B2, the “binding activity to VEGFR2-Fc compared with parental clone R2S12” value in series [8] is listed as “superior binding activity”.
